Results: paper PMC11829017

Assays:
[1] = biological target: E. coli ρ G150D with the sensor cysteines C84/C405 (X1), untagged (E. coli MG1655) (UniProt P0AG30); test: cross-linking; BMOE (0.5 mM) crosslinking of 1 μM purified ρ in PN23 buffer with 2 mM ADP, 10 min at room temperature; LDS-PAGE
[2] = biological target: E. coli ρ G150D with the sensor cysteines C84/C405 (X1), untagged (E. coli MG1655) (UniProt P0AG30); test: cross-linking; BMOE (0.5 mM) crosslinking of 1 μM purified untagged ρ in PN23 buffer with ppGpp or pppGpp; LDS-PAGE
[3] = biological target: E. coli ρ G150D with the sensor cysteines C84/C405 (X1), untagged (E. coli MG1655) (UniProt P0AG30); test: cross-linking; BMOE (0.5 mM) crosslinking of 1 μM purified ρ in PN23 buffer without nucleotide; LDS-PAGE

Substance: E. coli ρ G150D with the sensor cysteines C84/C405 (X1), untagged (from UniProt P0AG30 1-419) (enzyme)
- percent of ρ in the filament fraction [1]: 56%
- stoichiometry N [2]: 12
- percent of ρ in the filament fraction [3]: 18%
